For 29 sequences, protein stability index results are on record in the supplement of paper PMC10567573.

A short description of the series: protein stability index of a GFP-peptide fusion (GPS, HEK-293T) (PSI 1-6); higher = more stable.
Setting [1] is: treatment: DMSO, c terminus: native.
Where [2] appears, read: treatment: MLN4924 1 uM, 8 h, c terminus: native.
Where [3] appears, read: treatment: DMSO, c terminus: a fixed tail appended.
Setting [4] is: treatment: MLN4924 1 uM, 8 h, c terminus: a fixed tail appended.

± gives the standard deviation.
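Also: 24-mer peptide tiles fused after GFP, lentivirally expressed, FACS-sorted into six equal bins by GFP/DsRed ratio, decoded by Illumina sequencing, PSI is the read-weighted mean bin number.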

For MLEDGPHNANRGQRLLAFSRGRA [CCDC70], the protein stability index is 2.99 ± 0.63 under setting [1] and 2.77 ± 0.41 under setting [2].
For the sequence MLHHHCRRNPELQEELQIQAAVAA [ASB7], the protein stability index under setting [3] was 3.47 ± 0.29 and the protein stability index under setting [4] stood at 3.59 ± 0.26.
MNGEECAEDLRMLDASGEKMNGSH [IKZF1]: the protein stability index worked out at 5.15 ± 0.39 under setting [3] and 5.31 ± 0.18 under setting [4].
For MNGHQNGLDSPPLYPSAPILGGSG [ESRRG], the protein stability index was 3.91 ± 0.25 under setting [3] and 3.93 ± 0.3 under setting [4].
For MQPFNYVTLQCLAARALDKNKIPY [FEM1A], the protein stability index was determined as 3.25 ± 0.38 under setting [3] and 2.97 ± 0.31 under setting [4].
For MQRPYDSRTCIGSSHSRGPLSWAP, in that order: 3.1 ± 0.31 and 2.94 ± 0.05.
The like results for MTEPWLALGTSWTLPLQDRELGPE [CABP4] were, in that order, 3.54 ± 0.39 and 4.16 ± 0.2.
On to MTKAGSKGGNLRDKLDGNELDLSL [LRRC59], for which the protein stability index amounted to 4.63 ± 0.15 under setting [3] and 4.63 ± 0.081 under setting [4].
Regarding MTMIVSLAAVAWVGQQVHNLLLTY [ARL6IP1], the protein stability index runs as follows: under setting [3], 3.31 ± 0.37; under setting [4], 3.25 ± 0.32.
For the sequence MVFSGLCPLLLGSVMAIERCIGVT [PTGFR], the protein stability index by setting is: under setting [3], 3.4 ± 0.078; under setting [4], 3.37 ± 0.41.
For MVGEEKMSLRNRLSKSRENPEEDE [SOAT1], in that order: 5.52 ± 0.16 and 5.44 ± 0.21.
Consider MWVRFRAFEAARDLDACALVRGHR [ZSWIM9], for which the protein stability index reads like this: under setting [3], 2.17 ± 0.25; under setting [4], 2.06 ± 0.22.
As to NDYIVPRHCPELAEMSRVSIRILD [HNF4A], the protein stability index reads like this: under setting [3], 3.08 ± 0.19; under setting [4], 3.29 ± 0.24.
On to NEFLCTLQKKLDNLQCLYCEKTFR [ZNF277], for which the protein stability index is, setting by setting: under setting [3], 2 ± 0.4; under setting [4], 2.38 ± 0.32.
For NEFLEAFRLVEKSCPEGDASECPQ [PPEF2], in that order: 5 ± 0.75 and 5.17 ± 0.32.
As to NEKITMQNLNDRLASYLEKVRALE [KRT13], the protein stability index reads like this: under setting [3], 2.86 ± 0.4; under setting [4], 3 ± 0.32.
The like results for NESSLASTLKTLLFFTALMITVPI [VMA21] were, in that order, 2.92 ± 0.19 and 3.07 ± 0.2.
Turning to NGDDMFVTFAAMQAQQGRSSLVWL [MCOLN1], the protein stability index is, setting by setting: under setting [3], 3.18 ± 0.54; under setting [4], 2.83 ± 0.48.
In turn, NIYENGDVCISILHPPVDDPQSGE [UBE2R2] showed a protein stability index under setting [3] of 4.37 ± 0.1 and a protein stability index under setting [4] of 4.55 ± 0.087.
In the case of NKDGIGEICLWGRHIFMGYLESET [ACSBG2], the protein stability index was 2.29 ± 0.46 under setting [3] and 2.02 ± 0.31 under setting [4].
For NKKHIHSRSTLECAYRTHLVAGIG [SMG5], the protein stability index came to 2.37 ± 0.29 under setting [3] and 2.39 ± 0.19 under setting [4].
The like results for NLAGFILGCQGAQFVSSVPRCDLV [FAM189A2] were, in that order, 2.66 ± 0.59 and 2.58 ± 0.57.
The like results for NLDANLAFASFTSGVVRIWDLRDQ [TLE6] were, in that order, 2.3 ± 0.28 and 2.36 ± 0.33.
For the sequence NLPSGGKGFKLRRQPSEPKRSCC [RAB22A], the protein stability index is, setting by setting: under setting [1], 3.89 ± 0.34; under setting [2], 4 ± 0.35.
Consider NMDPKAAEEEEEEEEEVDLACTPT [CCND1], for which the protein stability index runs as follows: under setting [3], 5.6 ± 0.27; under setting [4], 5.64 ± 0.13.
With NNQDFIPFTKKRVGVDRAFPLKPM [ZC2HC1C], the protein stability index is, setting by setting: under setting [3], 2.85 ± 0.39; under setting [4], 3.26 ± 0.45.
With NNWYYISPRLTFQCLEDLVNHYSE [SLA], the protein stability index was 2.44 ± 0.35 under setting [3] and 2.23 ± 0.38 under setting [4].
For NPLICPVCTKYNLRITSGVVVCQC [RPAIN], in that order: 3.91 ± 0.32 and 4.16 ± 0.25.
The like results for NPNGGSFEEVLSSTAHASAQSLAG [TPD52L1] were, in that order, 4.76 ± 0.12 and 4.9 ± 0.11.
